Measured values as given in US20250223366A1, “MONOCLONAL ANTIBODIES AND BISPECIFIC ANTIBODY AGAINST C-MET” (BIOTHEUS INC., priority 2022, published 2025).
Positions count from the first letter of the chain named. Each block holds one molecule with its values, some of them ahead of it.

How the values were obtained:
[1] = tested on: H292 human lung cancer tumor cells; assay: Experimental Model 1: H292 tumor-bearing model; type: in vivo, CB-17 SCID mice; settings: H292, Day 7: 10 mg/kg; Day 21: 2 mg/kg; last measured 29 days after inoculation
Description: In this experiment, CB-17 SCID mice were subcutaneously inoculated with H292 human lung cancer tumor cells to establish a tumor-bearing model and determine the anti-tumor effect of the anti-EGFRxc-Met bispecific antibody. Sufficient H292 cells were cultured and expanded in vitro, and the cells were collected after trypsin digestion. After washing with PBS for 3 times, the cells were counted and inoculated subcutaneously at the right abdomen of female 8-week-old CB-17 SCID mice (purchased from Beijing Weitong Lihua) at an amount of 3×10^6 cells/mouse. The subcutaneous tumor formation of tumor cells in the mice was observed daily, and the maximum width axis W and the maximum length axis L of the subcutaneous tumor on the right abdomen of each animal were measured with a vernier caliper, and the weight of each mouse was weighed with an electronic balance. The subcutaneous tumor volume on the right abdomen of each mouse was calculated according to the following formula: tumor volume T=1/2×W×W×L. The mice with too large and too small tumor volumes were eliminated, and the remained mice were divided into 4 groups according to the average tumor volume, with 6 mice in each group. […]
The tumor volume and weight of mice were measured 2 to 3 times a week. The weight and tumor volume of mice were measured for the last time 29 days after the tumor cell inoculation, and then the mice were euthanized.

A375/H1975/HCC827 cells = assay: ADCC induction, CD16a-NFAT-Luc Jurkat reporter gene cells; type: cell-based, human; settings: A375, H1975, HCC827 target cells, CD16a-NFAT-Luc Jurkat effector cells, 6 h, FIG. 9
Text: A375 cells were human malignant melanoma cells and purchased from Addexbio, which were capable of expressing EGFR and c-Met receptors. H1975 cells were human lung adenocarcinoma cells and purchased from Addexbio, which were capable of highly expressing EGFR and c-Met receptors. HCC827 cells were human non-small cell lung cancer cells and purchased from the Cell Bank of the Chinese Academy of Sciences, which were capable of highly expressing EGFR and c-Met receptors. […]

monkey c-MET protein = assay: ForteBio affinity assay, monkey c-Met; type: binding
Description: (§1) After the antibodies were prepared, the ForteBio affinity assay was performed according to the reported method (Estep, P et al., Determination of antibody-antigen affinity and epitope binding based on high-throughput methods. MAbs, 2013.5(2): p. 270-8).

human c-MET protein = human c-MET protein (Homo sapiens, UniProt P08581); assay: ForteBio affinity assay, human c-Met; type: binding
Description: as §1

[2] = tested on: HGF-c-MET signaling pathway; assay: Blocking of HGF-c-MET signaling pathway in Gefitinib-treated HCC827 cells (single antibody concentration); type: cell-based, human; settings: 3 days, Cell titer glo, FIG. 2
Description: HCC827 cells were human non-small cell lung cancer cells (purchased from the Cell Bank of the Chinese Academy of Sciences), which highly express epidermal growth factor receptor EGFR (exon 19 deletion) and c-Met receptor. The treatment with small molecule tyrosine kinase inhibitor (TKI) Gefitinib (gefitinib, an epidermal growth factor receptor tyrosine kinase inhibitor) would induce apoptosis in HCC827 cells. If HGF was added at the same time under such conditions, the c-Met pathway would be activated to induce HCC827 to produce resistance to Gefitinib, thereby inhibiting apoptosis.
The cell density of the HCC827 cells after the expanded culture was adjusted to 2×10^4 cells/ml, added to a 96-well cell culture plate at 100 μl/well, and cultured overnight for later use. The antibody to be tested was diluted to 1000 nM with 1640 medium, HGF was diluted to 800 ng/mL, and Gefitinib was diluted to 8 μM. According to the experimental requirements, the diluted antibody at 50 μl/well, HGF at 25 μl/well, and Gefitinib at 25 μl/well were added to the 96-well plate with HCC827 cells, and supplemented with 1640 medium to reach a total volume of 200 μl/well. After culturing for 3 days at 37° C. and 5% carbon dioxide, 100 μl of the medium was removed, and then Cell titer glo (purchased from Promega) was added at 100 μl/well, and the chemiluminescent signal was collected with an microplate reader.

Chain of human c-MET protein (P08581 25-1390): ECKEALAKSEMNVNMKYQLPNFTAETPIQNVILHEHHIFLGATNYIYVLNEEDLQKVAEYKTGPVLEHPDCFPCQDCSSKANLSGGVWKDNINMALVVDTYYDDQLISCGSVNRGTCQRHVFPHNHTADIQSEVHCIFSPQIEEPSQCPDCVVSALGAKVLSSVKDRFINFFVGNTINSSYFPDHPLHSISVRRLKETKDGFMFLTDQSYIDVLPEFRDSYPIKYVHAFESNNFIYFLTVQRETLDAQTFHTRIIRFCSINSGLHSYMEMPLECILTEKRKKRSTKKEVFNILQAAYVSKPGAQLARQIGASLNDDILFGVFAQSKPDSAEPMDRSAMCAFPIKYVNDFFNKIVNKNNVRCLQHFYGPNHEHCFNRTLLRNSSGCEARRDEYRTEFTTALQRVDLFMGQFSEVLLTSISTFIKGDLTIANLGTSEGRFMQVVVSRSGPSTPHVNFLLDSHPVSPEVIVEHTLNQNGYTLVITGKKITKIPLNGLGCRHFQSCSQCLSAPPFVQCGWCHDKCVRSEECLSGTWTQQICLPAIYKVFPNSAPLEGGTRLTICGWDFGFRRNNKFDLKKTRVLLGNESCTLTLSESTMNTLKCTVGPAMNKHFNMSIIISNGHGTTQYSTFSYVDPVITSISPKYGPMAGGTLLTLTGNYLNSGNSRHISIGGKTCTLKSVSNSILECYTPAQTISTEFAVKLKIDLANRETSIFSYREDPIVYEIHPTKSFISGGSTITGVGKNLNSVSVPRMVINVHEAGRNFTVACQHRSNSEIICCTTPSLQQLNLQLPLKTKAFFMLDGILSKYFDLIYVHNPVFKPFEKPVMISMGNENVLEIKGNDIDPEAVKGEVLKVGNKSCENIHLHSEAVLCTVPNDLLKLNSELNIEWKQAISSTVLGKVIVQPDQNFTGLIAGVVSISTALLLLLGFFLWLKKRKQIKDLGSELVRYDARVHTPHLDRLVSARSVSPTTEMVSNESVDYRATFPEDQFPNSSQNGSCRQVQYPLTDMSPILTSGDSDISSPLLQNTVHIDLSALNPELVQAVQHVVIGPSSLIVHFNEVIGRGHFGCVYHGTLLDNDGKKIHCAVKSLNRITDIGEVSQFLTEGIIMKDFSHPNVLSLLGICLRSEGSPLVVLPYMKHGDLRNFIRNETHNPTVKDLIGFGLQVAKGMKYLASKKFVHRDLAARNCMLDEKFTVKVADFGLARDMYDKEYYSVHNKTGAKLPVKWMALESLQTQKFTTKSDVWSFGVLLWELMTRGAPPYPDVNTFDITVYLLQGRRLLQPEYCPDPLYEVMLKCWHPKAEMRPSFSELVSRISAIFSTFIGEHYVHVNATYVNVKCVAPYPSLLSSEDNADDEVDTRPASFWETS

B1: Amivantamab analog Afu: control bispecific antibody obtained from the afucosylation cell line with gene knockout (antibody, chains of the INN, looked up, V domains shown)
VH: QVQLVESGGGVVQPGRSLRLSCAASGFTFSTYGMHWVRQAPGKGLEWVAVIWDDGSYKYYGDSVKGRFTISRDNSKNTLYLQMNSLRAEDTAVYYCARDGITMVRGVMKDYFDYWGQGTLVTVSS
VL: AIQLTQSPSSLSASVGDRVTITCRASQDISSALVWYQQKPGKAPKLLIYDASSLESGVPSRFSGSESGTDFTLTISSLQPEDFATYYCQQFNSYPLTFGGGTKVEIK
VH2: QVQLVQSGAEVKKPGASVKVSCETSGYTFTSYGISWVRQAPGHGLEWMGWISAYNGYTNYAQKLQGRVTMTTDTSTSTAYMELRSLRSDDTAVYYCARDLRGTNYFDYWGQGTLVTVSS
VL2: DIQMTQSPSSVSASVGDRVTITCRASQGISNWLAWFQHKPGKAPKLLIYAASSLLSGVPSRFSGSGSGTDFTLTISSLQPEDFATYYCQQANSFPITFGQGTRLEIK
modifications: afucosylated
notes: control bispecific antibody obtained from the afucosylation cell line with gene knockout
tumor (volume) inhibition rate (TGI) [1]: 74.5%
ADCC effect (A375/H1975/HCC827 cells): stronger ADCC effect than the wild-type antibody containing fucose

Koff (human c-MET protein): 6.71e-06 s⁻¹
Kon (human c-MET protein): 229000 M⁻¹ s⁻¹
B2: 136: anti-c-MET antibody from yeast display screening; VH SEQ ID NO: 9, VL SEQ ID NO: 11 (antibody, V domains shown)
VH: EVQLQESGPGLVKPSETLSLTCTVSGGSVTSVNYYWKWIRQPPGKGLEWIGYISYSGNTNYNPSLKSRVTISVDTSKNQFSLKLSSVTAADTAVYYCVRAPYYYMDVWSKGTTVTVSS
VL: DIVMTQSPSSVSASVGDRVTITCRASQGISSWLAWYQQKPGKAPKLLIYAVSSLQSGVPSRFSGSGSGTDFTLTISSLQPEDFATYFCQQANSFPLTFGGGTKVEIK
Koff (monkey c-MET protein): 0.000426 s⁻¹
Kon (monkey c-MET protein): 369000 M⁻¹ s⁻¹
restoring the proliferation inhibitory effect of Gefitinib on HCC827 cells by blocking HGF-c-MET signaling [2]: could restore the proliferation inhibitory effect of Gefitinib on HCC827 cells

Koff (human c-MET protein): 0.000369 s⁻¹
Kon (human c-MET protein): 220000 M⁻¹ s⁻¹
B3: 187: anti-c-MET antibody from yeast display screening; VH SEQ ID NO: 13, VL SEQ ID NO: 15 (antibody, V domains shown)
VH: ELQLQESGPGLVKPSETLSLTCTVSGGSISSSSYYWGWIRQSPGKGLEWIGSRYYSGNTYYNPSLKSRVTMSVDTSKNQFSLKLRSVTAADTAVYYCARQVYDYWRDWGQGALVTVSS
VL: B2 VL with K45N, V51A, S53N, Q55P, D70V, F87Y, A91S
Koff (monkey c-MET protein): 0.000947 s⁻¹
Kon (monkey c-MET protein): 324000 M⁻¹ s⁻¹
restoring the proliferation inhibitory effect of Gefitinib on HCC827 cells by blocking HGF-c-MET signaling [2]: could restore the proliferation inhibitory effect of Gefitinib on HCC827 cells
